Key:
[1] = biological target: T1, Protein A, recombinant (P7837) (Staphylococcus aureus, UniProt P02976 37-327); experiment: ELONA; ELONA and bead assay: 100 mM NaCl, 20 mM Tris-HCl pH 7.6, 10 mM MgCl2, 5 mM KCl, 1 mM CaCl2, 0.005% Tween 20, 21 C; CD: 25 mM Britton-Robinson pH 7.6, 100 mM NaCl, 10 mM MgCl2, 1 mM CaCl2, 5 mM KCl; settings: protein: recombinant
Protein A, native [2] = biological target: T2, Protein A, native (Staphylococcus aureus, UniProt P38507 37-477); experiment: CD difference spectrum; ELONA and bead assay: 100 mM NaCl, 20 mM Tris-HCl pH 7.6, 10 mM MgCl2, 5 mM KCl, 1 mM CaCl2, 0.005% Tween 20, 21 C; CD: 25 mM Britton-Robinson pH 7.6, 100 mM NaCl, 10 mM MgCl2, 1 mM CaCl2, 5 mM KCl
[3] = biological target: T1, Protein A, recombinant (P7837); experiment: ELONA; signal in range of library control; ELONA and bead assay: 100 mM NaCl, 20 mM Tris-HCl pH 7.6, 10 mM MgCl2, 5 mM KCl, 1 mM CaCl2, 0.005% Tween 20, 21 C; CD: 25 mM Britton-Robinson pH 7.6, 100 mM NaCl, 10 mM MgCl2, 1 mM CaCl2, 5 mM KCl
Protein A, native [4] = biological target: T2, Protein A, native; experiment: ELONA; ELONA and bead assay: 100 mM NaCl, 20 mM Tris-HCl pH 7.6, 10 mM MgCl2, 5 mM KCl, 1 mM CaCl2, 0.005% Tween 20, 21 C; CD: 25 mM Britton-Robinson pH 7.6, 100 mM NaCl, 10 mM MgCl2, 1 mM CaCl2, 5 mM KCl; settings: protein: native; label: 3'-biotin; G4 (parallel, di-/multimers) plus 5' imperfect hairpin

B1: PA#2/8[S1-58] (3'Bio) (structured_DNA)
DNA: ATACCAGCTTATTCAATTAGCAACATGAGGGGGATAGAGGGGGTGGGTTCTCTCGGCT
[1]; label: 3'-biotin, G4 plus 5' imperfect hairpin
  Kd: 11.3 ± 1.4 nM

B2: PA#2/8[S1-58] (5'Bio) (structured_DNA)
DNA: ATACCAGCTTATTCAATTAGCAACATGAGGGGGATAGAGGGGGTGGGTTCTCTCGGCT
[1]; label: 5'-biotin, G4 plus 5' imperfect hairpin
  Kd: 23.7 ± 2 nM

B3: PA#2/8[S1-58] (unlabelled) (structured_DNA)
DNA: ATACCAGCTTATTCAATTAGCAACATGAGGGGGATAGAGGGGGTGGGTTCTCTCGGCT
Protein A, native [2]; G4 plus 5' imperfect hairpin
  binding result: binds

## ATACCAGCTTATTCAATTAGCAACATGAGGGGGATAGAGGGGGTGGGTTC (structured_DNA) [PA#2/8[S1-50] (Bio)]
[3]; label: biotin (5' or 3'; 3' on cells), G4 plus 5' imperfect hairpin
  binding result: no binding

## ATACCAGCTTATTCAATTAGCAACATGAGGGGGATAGAGGGGGTGGGTTC (structured_DNA) [PA#2/8[S1-50] (unlabelled)]
Protein A, native [2]; G4 plus 5' imperfect hairpin
  binding result: binds

## ATACCAGCTTATTCAATTAGCAACATGAGGGGGATAGAGGGGG (structured_DNA) [PA#2/8[S1-43] (Bio)]
[3]; label: biotin (5' or 3'), G4, mainly monomer, plus 5' imperfect hairpin
  binding result: no binding

## ATACCAGCTTATTCAATTAGCAACATGAGGGGGATAGAGGGGG (structured_DNA) [PA#2/8[S1-43] (unlabelled)]
Protein A, native [2]; G4, mainly monomer, plus 5' imperfect hairpin
  binding result: binds

B4: PA#2/8 (3'Bio) (structured_DNA)
DNA: ATACCAGCTTATTCAATTAGCAACATGAGGGGGATAGAGGGGGTGGGTTCTCTCGGCTACAATCGTAATCAGTTAG
[1]; label: 3'-biotin, G4 (parallel, di-/multimers) plus 5' imperfect hairpin
  Kd: 101 ± 5.9 nM
Protein A, native [4]
  binding result: binds

B5: PA#2/8 (unlabelled) (structured_DNA)
DNA: ATACCAGCTTATTCAATTAGCAACATGAGGGGGATAGAGGGGGTGGGTTCTCTCGGCTACAATCGTAATCAGTTAG
Protein A, native [2]; G4 (parallel, di-/multimers) plus 5' imperfect hairpin
  binding result: binds

B6: PA#2/8 (5'Bio) (structured_DNA)
DNA: ATACCAGCTTATTCAATTAGCAACATGAGGGGGATAGAGGGGGTGGGTTCTCTCGGCTACAATCGTAATCAGTTAG
[1]; label: 5'-biotin, G4 (parallel, di-/multimers) plus 5' imperfect hairpin
  Kd: 190 ± 13 nM

— paper PMC5030626, “G-quadruplex aptamer targeting Protein A and its capability to detect Staphylococcus aureus demonstrated by ELONA”
